Assay results taken from paper PMC7954794, “Protein context shapes the specificity of SH3 domain-mediated interactions in vivo” (Nature Communications, 2021).

B1: S. cerevisiae Abp1 (full length; SH3 domain 535-592 mutated) / Hua2 (parent)
chain 1: MALEPIDYTTHSREIDAEYLKIVRGSDPDTTWLIISPNAKKEYEPESTGSSFHDFLQLFDETKVQYGLARVSPPGSDVEKIIIIGWCPDSAPLKTRASFAANFAAVANNLFKGYHVQVTARDEDDLDENELLMKISNAAGARYSIQTSSKQQGKASTPPVKKSFTPSKSPAPVSKKEPVKTPSPAPAAKISSRVNDNNDDDDWNEPELKERDFDQAPLKPNQSSYKPIGKIDLQKVIAEEKAKEDPRLVQKPTAAGSKIDPSSDIANLKNESKLKRDSEFNSFLGTTKPPSMTESSLKNDDDKVIKGFRNEKSPAQLWAERKAKQNSGNAETKAEAPKPEVPEDEPEGEPDVKDLKSKFEGLAASEKEEEEMENKFAPPPKKSEPTIISPKPFSKPQEPVKAEEAEQPKTDYKKIGNPLPGMHIEADNEEEPEENDDDWDDDEDEAAQPPLPSRNVASGAPVQKEEPEQEEIAPSLPSRNSIPAPKQEEAPEQAPEEEIEEEAEEAAPQLPSRSSAAPPPPPRRATPEKKPKENPWATAEYDYDAAEDNELTFVENDKIINIEFVDDDWWLGELEKDGSKGLFPSNYVSLGN
chain 2: MQQTKFGKMYLDHDSVVEYSEDEIVEADRITLGYKKRLSMIENQMRHLLEDFSLDVQQIEPILADLQKYYDAFLQLLQKRNKSLQCKRSTHQPVPSPMNSQTSTNAKVNLSGKLMKFQLNSVQKFDEENILRILQNKIEFEHYFQIDKGKKQKVLLLAVYQCLNGPTRLHKVLNIEGIIHNNSIRTILGKQVSSSKWTVFLYDVKLVLLAHRQDVPNLETSKMIVRYGDLFPCALYFKDHTAY

Variants of: B1
Assay: DHFR protein-fragment complementation in yeast (Abp1-DHFR F[1,2] x partner-DHFR F[3]), deep mutational scanning, second methotrexate selection vs reference
Conditions: with Hua2; S. cerevisiae, DHFR-PCA selection in liquid with methotrexate at 30 C, two 72 h selections (the score uses the second); reference = the pre-selection culture; not an affinity; value at the no-binding floor (a bound); scale: DMS score: mean over two replicates of log2(f_test/f_ref + 0.5)/ln 2, minus the synonymous-codon median

| screen value | Variant |
| --- | --- |
| -3 | chain 1 E540P |
| < -3.06 | chain 1 A537N |
| < -3.06 | chain 1 A537H |
| -3.04 | chain 1 A537R |
| < -3.06 | chain 1 A537M |
| < -3.06 | chain 1 A537Q |
| < -3.06 | chain 1 A537Y |
| -3.02 | chain 1 A537L |
| < -3.06 | chain 1 A537W |
| -3.04 | chain 1 A537E |
| -3.01 | chain 1 A537I |
| < -3.06 | chain 1 D566L |
| < -3.06 | chain 1 D566P |
| < -3.06 | chain 1 D566W |
| < -3.06 | chain 1 D566I |
| < -3.06 | chain 1 E547P |
| < -3.06 | chain 1 E573P |
| < -3.06 | chain 1 F553K |
| < -3.06 | chain 1 F553R |
| < -3.06 | chain 1 F553H |
| < -3.06 | chain 1 F553P |

| screen value | Variant |
| --- | --- |
| < -3.06 | chain 1 F553D |
| -3.03 | chain 1 F553A |
| < -3.06 | chain 1 F553Q |
| -3.01 | chain 1 F553T |
| -3.04 | chain 1 F553G |
| < -3.06 | chain 1 F553N |
| < -3.06 | chain 1 F553W |
| < -3.06 | chain 1 F553E |
| < -3.06 | chain 1 E550S |
| < -3.06 | chain 1 E550M |
| < -3.06 | chain 1 E550C |
| < -3.06 | chain 1 E550L |
| -3 | chain 1 E550R |
| < -3.06 | chain 1 E550N |
| < -3.06 | chain 1 E550W |
| -3.03 | chain 1 E550T |
| < -3.06 | chain 1 E550P |
| < -3.06 | chain 1 D567L |
| -2.99 | chain 1 D567F |
| < -3.06 | chain 1 D567W |
| -3.04 | chain 1 E563P |

Same assay, conditions: with Hua2; S. cerevisiae, DHFR-PCA selection in liquid with methotrexate at 30 C, two 72 h selections (the score uses the second); reference = the pre-selection culture; not an affinity; scale: DMS score: mean over two replicates of log2(f_test/f_ref + 0.5)/ln 2, minus the synonymous-codon median

| Variant | screen value |
| --- | --- |
| chain 1 E540F | -2.97 |
| chain 1 D566V | -2.75 |
| chain 1 E575T | -1.44 |
| chain 1 E575R | -1.6 |
| chain 1 E575N | -1.15 |
| chain 1 E575P | -1.33 |
| chain 1 E575G | -1.41 |
| chain 1 E575F | -1.16 |
| chain 1 E547W | -2.89 |
| chain 1 E547V | -2.1 |
| chain 1 E547A | -2.3 |
| chain 1 E547F | -1.69 |
| chain 1 E547C | -2.2 |
| chain 1 E547G | -2.81 |
| chain 1 E547M | -1.68 |
| chain 1 E547I | -2.45 |
| chain 1 E573L | -2.11 |
| chain 1 E573W | -2.52 |
| chain 1 E573D | -1.16 |
| chain 1 E573R | -1.65 |
| chain 1 E573G | -2.56 |

| Variant | screen value |
| --- | --- |
| chain 1 E573K | -1.32 |
| chain 1 E573A | -1.17 |
| chain 1 F553C | -2.38 |
| chain 1 F553V | -1.32 |
| chain 1 F553S | -2.83 |
| chain 1 A546P | -2.02 |
| chain 1 E550V | -2.76 |
| chain 1 E550G | -2.84 |
| chain 1 E550K | -2.04 |
| chain 1 E550D | -1.79 |
| chain 1 E550A | -2.77 |
| chain 1 D567Y | -1.92 |
| chain 1 D548Y | -1.22 |
| chain 1 E563Y | -2.45 |
| chain 1 E563G | -1.92 |
| chain 1 E563W | -2.93 |
| chain 1 E563L | -1.4 |
| chain 1 E563M | -1.5 |
| chain 1 E563F | -1.96 |
| chain 1 D542W | -1.61 |
| chain 1 D542I | -2.41 |

Results, then the variant that gave them:

| screen value | Variant |
| --- | --- |
| -1.27 | chain 1 S579I |
| -2.21 | chain 1 S579P |
| -2.71 | chain 1 S579Y |
| -1.41 | chain 1 S579G |
| -1.48 | chain 1 S579A |
| -1.27 | chain 1 S579D |
| -2.55 | chain 1 S579F |
| -2.9 | chain 1 S579W |
| -2.15 | chain 1 I560D |
| -2.4 | chain 1 I560W |
| -1.35 | chain 1 I560A |
| -2.38 | chain 1 I560G |
| -2.92 | chain 1 W569V |
| -2.34 | chain 1 W569L |
| -2.06 | chain 1 W569G |
| -1.49 | chain 1 W569C |
| -2.35 | chain 1 W569R |
| -2.94 | chain 1 W569E |
| -2.9 | chain 1 T538G |
| -1.88 | chain 1 T538P |
| -1.19 | chain 1 T538W |

| screen value | Variant |
| --- | --- |
| -2.65 | chain 1 T538D |
| -2.97 | chain 1 N556P |
| -2.96 | chain 1 N556V |
| -1.22 | chain 1 N556W |
| -2.52 | chain 1 N556I |
| -1.06 | chain 1 V565I |
| -1.5 | chain 1 V565F |
| -1.37 | chain 1 V565G |
| -2.08 | chain 1 V565E |
| -2.39 | chain 1 K580G |
| -1.88 | chain 1 K580Y |
| -1.55 | chain 1 K580W |
| -2.63 | chain 1 K580D |
| -2.85 | chain 1 P584A |
| -2.52 | chain 1 P584L |
| -2.56 | chain 1 P584S |
| -2.12 | chain 1 P584H |
| -2.94 | chain 1 P584R |
| -2.19 | chain 1 P584T |
| -2.41 | chain 1 F553Y |
| -2.55 | chain 1 L590T |

| screen value | Variant |
| --- | --- |
| -2.44 | chain 1 L590H |
| -2.75 | chain 1 L590A |
| -2.85 | chain 1 L590R |
| -2.24 | chain 1 L590C |
| -1.2 | chain 1 L590W |
| -2.62 | chain 1 L590Q |
| -2.63 | chain 1 L590S |
| -1.64 | chain 1 L590Y |
| -1.72 | chain 1 L590P |
| -2.78 | chain 1 L590K |
| -2.84 | chain 1 L590E |
| -2.8 | chain 1 T552Y |
| -1.73 | chain 1 T552C |
| -1.99 | chain 1 T552I |
| -2.22 | chain 1 T552M |
| -1.32 | chain 1 T552E |
| -2.72 | chain 1 T552V |
| -2.02 | chain 1 T552P |
| -1.13 | chain 1 T552Q |
| -2.87 | chain 1 T552F |
| -2.61 | chain 1 I562T |

| screen value | Variant |
| --- | --- |
| -2.85 | chain 1 I562W |
| -1.85 | chain 1 I562N |
| -2.46 | chain 1 I562S |
| -1.57 | chain 1 I562M |
| -2.51 | chain 1 I562F |
| -2.84 | chain 1 I562C |
| -2.41 | chain 1 G578Y |
| -2.3 | chain 1 G578T |
| -2.28 | chain 1 G578L |
| -1.21 | chain 1 G578E |
| -2.83 | chain 1 G578V |
| -1.53 | chain 1 G578D |
| -1.66 | chain 1 G578C |
| -2.12 | chain 1 G578F |
| -2.15 | chain 1 Y543C |
| -2.67 | chain 1 Y543S |
| -2.77 | chain 1 Y543Q |
| -1.79 | chain 1 Y543N |
| -2.57 | chain 1 Y543D |
| -2.96 | chain 1 Y543K |
